Substrate: OC[C@H]1OC[C@H](O)[C@@H](O)[C@@H]1O
Experiment: 1,5-AG uptake in HEK293T cells overexpressing SGLT5 variant Ala522Val
Format: cell-based, human
Conditions: other: variant Ala522Val (rs12604020); pH 7.4; 37.0 °C
Description: For a typical transporter experiment we proceeded as follows. […] To minimize cell loss during the various washing steps in the radioactive uptake experiments, the wells where the cells were seeded were previously coated with poly- D-lysine, which improved their adhesion to the plastic surface of the wells. For this, each well of the 24-well plates was treated with 200 µl of a 0.01% poly-L-lysine solution for 10 min, washed 3 times with 1 ml of sterilized water and left to dry for 2 h. Only then could the 24-well plates be seeded with the appropriate cell lines and cultured overnight at 37 °C in 5% CO2.
On day two, the radioactive uptake assay could be performed. The cell culture media was removed by aspiration and cells were incubated for 20 min at 37 °C and 5% CO2 with a basal medium (10 mM HEPES, pH 7.4, 1 mM CaCl2, 1 mM MgCl2, 2 mM KCl) containing 140 mM choline chloride to deplete intracellular Na^2+ ions. […]
Once the uptake medium was added to the cells, the plates were incubated at 37 °C in 5% CO2 during the required time. […] In each experiment, the transport activities were calculated after subtracting a “blank” value, corresponding to the radioactivity in the appropriate control cells (HEK293T cells that were stably or transiently transfected with one of the parent plasmids pEF6/MycHisA, pEF6HisB, pUB82 or pUB83 with no inserted cDNA) that were analyzed in parallel. […]

B1: hSGLT5 Ala522Val (Homo sapiens; A522V) (protein)
chain: MAANSTSDLHTPGTQLSVADIIVITVYFALNVAVGIWSSCRASRNTVNGYFLAGRDMTWWPIGASLFASSEGSGLFIGLAGSGAAGGLAVAGFEWNATYVLLALAWVFVPIYISSEIVTLPEYIQKRYGGQRIRMYLSVLSLLLSVFTKISLDLYAGALFVHICLGWNFYLSTILTLGITALYTIAGGLAAVIYTDALQTLIMVVGAVILTIKAFDQIGGYGQLEAAYAQAIPSRTIANTTCHLPRTDAMHMFRDPHTGDLPWTGMTFGLTIMATWYWCTDQVIVQRSLSARDLNHAKAGSILASYLKMLPMGLIIMPGMISRALFPDDVGCVVPSECLRACGAEVGCSNIAYPKLVMELMPIGLRGLMIAVMLAALMSSLTSIFNSSSTLFTMDIWRRLRPRSGERELLLVGRLVIVALIGVSVAWIPVLQDSNSGQLFIYMQSVTSSLAPPVTAVFVLGVFWRRANEQGAFWGLIAGLVVGATRLVLEFLNPAPPCGEPDTRPAVLGSIHYLHFAVALFVLSGAVVVAGSLLTPPPQSVQIENLTWWTLAQDVPLGTKAGDGQTPQKHAFWARVCGFNAILLMCVNIFFYAYFA
notes: pUB83-hSGLT5-iso2 as well as the various SGLT5 mutants obtained were used to transduce HEK293T cells; expressed in transfected cells; host or cells: HEK293T, lentiviral transduction (pUB83)
  Km: 210 ± 12 µM
